From the Immune Epitope Database (IEDB)

Legend:
[1] = target: HLA-A*68:23; test: IEDB peptide-MHC binding, purified MHC/competitive/fluorescence; filed as Kd, often an IC50 or EC50 that approximates it; ≥ and ≤ were set here for values at or beyond the usual limits of such assays; conditions: source organism: Homo sapiens
[2] = target: HLA-A*32:07; test: as above; conditions: source organism: Homo sapiens
[3] = target: HLA-C*06:02; test: as above; conditions: source organism: Homo sapiens
[4] = target: HLA-B*15:42; test: as above; conditions: source organism: Homo sapiens
[5] = target: HLA-A*32:15; test: as above; conditions: source organism: Homo sapiens
[6] = target: HLA-B*45:06; test: as above; conditions: source organism: Homo sapiens
[7] = target: HLA-B*40:13; test: as above; conditions: source organism: Homo sapiens
[8] = target: HLA-B*83:01; test: as above; conditions: source organism: Homo sapiens
[9] = target: HLA-C*07:02; test: IEDB peptide-MHC binding, purified MHC/direct/fluorescence; filed as Kd, often an IC50 or EC50 that approximates it; ≥ and ≤ were set here for values at or beyond the usual limits of such assays; conditions: source organism: Homo sapiens
[10] = target: HLA-C*05:01; test: as above; conditions: source organism: Homo sapiens
[11] = target: HLA-B*51:01; test: as above
[12] = target: HLA-A*31:01; test: as above
[13] = target: HLA-B*07:02; test: as above
[14] = target: HLA-B*46:01; test: as above; conditions: source organism: Giardia lamblia ATCC 50803
[15] = target: HLA-B*15:09; test: as above
[16] = target: HLA-B*58:01; test: as above
[17] = target: HLA-A*03:01; test: as above; conditions: source organism: Giardia lamblia ATCC 50803
[18] = target: HLA-B*18:01; test: as above; conditions: source organism: Giardia lamblia ATCC 50803
[19] = target: HLA-A*02:01; test: as above; conditions: source organism: Giardia lamblia ATCC 50803
[20] = target: HLA-A*69:01; test: as above
[21] = target: HLA-B*40:01; test: as above; conditions: source organism: Giardia lamblia ATCC 50803
[22] = target: HLA-A*26:01; test: as above
[23] = target: HLA-B*15:01; test: as above; conditions: source organism: Giardia lamblia ATCC 50803
[24] = target: HLA-B*15:17; test: as above; conditions: source organism: Giardia lamblia ATCC 50803
[25] = target: HLA-B*08:01; test: as above
[26] = target: HLA-A*30:01; test: as above; conditions: source organism: Giardia lamblia ATCC 50803
[27] = target: HLA-B*48:01; test: as above; conditions: source organism: Giardia lamblia ATCC 50803
[28] = target: HLA-A*11:01; test: as above; conditions: source organism: Giardia lamblia ATCC 50803
[29] = target: HLA-B*57:01; test: as above
[30] = target: HLA-B*27:05; test: as above; conditions: source organism: Giardia lamblia ATCC 50803
[31] = target: HLA-A*01:01; test: as above
[32] = target: HLA-A*02:06; test: IEDB peptide-MHC binding, purified MHC/competitive/fluorescence; filed as Kd, often an IC50 or EC50 that approximates it; ≥ and ≤ were set here for values at or beyond the usual limits of such assays; conditions: source organism: Brucella abortus S19
[33] = target: HLA-A*02:03; test: as above; conditions: source organism: Brucella abortus S19
[34] = target: HLA-B*18:01; test: as above; conditions: source organism: Brucella abortus S19
[35] = target: HLA-A*02:01; test: as above; conditions: source organism: Brucella abortus S19
[36] = target: HLA-A*68:02; test: as above; conditions: source organism: Brucella abortus S19
[37] = target: HLA-B*15:01; test: as above; conditions: source organism: Brucella abortus S19
[38] = target: HLA-B*15:17; test: as above; conditions: source organism: Brucella abortus S19
[39] = target: HLA-A*11:01; test: as above; conditions: source organism: Brucella abortus S19
[40] = target: HLA-A*26:02; test: as above; conditions: source organism: Brucella abortus S19
[41] = target: HLA-A*23:01; test: IEDB peptide-MHC binding, purified MHC/direct/fluorescence; filed as Kd, often an IC50 or EC50 that approximates it; ≥ and ≤ were set here for values at or beyond the usual limits of such assays; conditions: source organism: Brucella abortus 2308
[42] = target: HLA-A*24:03; test: as above; conditions: source organism: Brucella abortus 2308
[43] = target: HLA-C*06:02; test: as above; conditions: source organism: Brucella abortus S19
[44] = target: HLA-B*08:03; test: as above; conditions: source organism: Brucella suis 1330
[45] = target: HLA-B*39:01; test: as above; conditions: source organism: Brucella suis 1330
[46] = target: HLA-C*14:02; test: as above; conditions: source organism: Brucella abortus S19
[47] = target: HLA-C*15:02; test: as above; conditions: source organism: Brucella abortus S19
[48] = source organism: Giardia lamblia ATCC 50803
[49] = source organism: Brucella abortus 2308
[50] = source organism: Brucella suis 1330

## MAMGILHTI
[1]
  Kd: 0.0065 µM
[2]
  Kd: 0.0047 µM
[3]
  Kd: 1.78 µM
[4]
  Kd: ≥ 5 µM
[5]
  Kd: 0.0202 µM
[6]
  Kd: ≥ 5 µM
[7]
  Kd: 0.213 µM
[8]
  Kd: 3.6 µM
[9]
  Kd: 3.31 µM
[10]
  Kd: ≥ 20 µM
[11]; source organism: Homo sapiens
  Kd: 0.168 µM

## RPALVVDTP
[12]; [48]
  Kd: ≥ 20 µM
[13]; [48]
  Kd: ≥ 20 µM
[14]
  Kd: ≥ 20 µM
[15]; [48]
  Kd: ≥ 20 µM
[16]; [48]
  Kd: ≥ 20 µM
[17]
  Kd: ≥ 20 µM
[18]
  Kd: ≥ 20 µM
[19]
  Kd: ≥ 20 µM
[20]; [48]
  Kd: ≥ 20 µM
[21]
  Kd: ≥ 20 µM
[22]; [48]
  Kd: ≥ 20 µM
[23]
  Kd: ≥ 20 µM
[24]
  Kd: ≥ 20 µM
[25]; [48]
  Kd: ≥ 20 µM
[26]
  Kd: ≥ 20 µM
[27]
  Kd: ≥ 20 µM
[28]
  Kd: ≥ 20 µM
[29]; [48]
  Kd: ≥ 20 µM
[30]
  Kd: ≥ 20 µM
[31]; [48]
  Kd: ≥ 20 µM
[11]; [48]
  Kd: ≥ 20 µM

## YWMGGTTYF
[32]
  Kd: 0.797 µM
[33]
  Kd: 4.23 µM
[34]
  Kd: ≥ 20 µM
[35]
  Kd: 1.12 µM
[36]
  Kd: ≥ 20 µM
[37]
  Kd: 1.04 µM
[38]
  Kd: 1.02 µM
[39]
  Kd: 2.07 µM
[40]
  Kd: ≥ 20 µM
[12]; [49]
  Kd: ≥ 20 µM
[41]
  Kd: 0.0535 µM
[13]; [49]
  Kd: ≥ 20 µM
[42]
  Kd: ≤ 0.001 µM
[15]; [50]
  Kd: ≥ 20 µM
[16]; [49]
  Kd: ≥ 20 µM
[43]
  Kd: ≥ 20 µM
[44]
  Kd: ≥ 20 µM
[20]; [49]
  Kd: ≥ 20 µM
[22]; [50]
  Kd: ≥ 20 µM
[45]
  Kd: ≥ 20 µM
[25]; [50]
  Kd: ≥ 20 µM
[29]; [49]
  Kd: ≥ 20 µM
[46]
  Kd: ≤ 0.001 µM
[31]; [49]
  Kd: ≥ 20 µM
[47]
  Kd: ≥ 20 µM
